# Test results published in paper PMC3322874 (The Journal of Biological Chemistry, 2012).
# Molecular target: the molecule itself
# Test: crystal structure
protein,measurement,value
"R182K-AfUGM (enzyme, Aspergillus fumigatus) THPDISVDVLVIGAGPTGLGAAKRLNQIDGPSWMIVDSNETPGGLASTDVTPEGFLYDVGGHVIFSHYKYFDDCLDEALPKEDDWYTHQRISYVRCQGQWVPYPFQNNISMLPKEEQVKCIDGMIDAALEARVANTKPKTFDEWIVRMMGTGIADLFMRPYNFKVWAVPTTKMQCAWLGEKVAAPNLKAVTTNVILGKTAGNWGPNATFRFPARGGTGGIWIAVANTLPKEKTRFGEKGKVTKVNANNKTVTLQDGTTIGYKKLVSTMAVDFLAEAMNDQELVGLTKQLFYSSTHVIGVGVRGSRPERIGDKCWLYFPEDNCPFYRATIFSNYSPYNQPEASKKLPTMQLADGSRPQSTEAKEGPYWSIMLEVSESSMKPVNQETILADCIQGLVNTEMLKPTDEIVSTYHRRFDHGYPTPTLEREGALTQILPKLQDKDIWSRGRFGSWRYEVGNQDHSFMLGVEAVDNIVNGAVELTLNYPDFVNGRQNTERRLVDGAQVFAKSKAQ",stoichiometry N,4
"R327K-AfUGM (enzyme, Aspergillus fumigatus) THPDISVDVLVIGAGPTGLGAAKRLNQIDGPSWMIVDSNETPGGLASTDVTPEGFLYDVGGHVIFSHYKYFDDCLDEALPKEDDWYTHQRISYVRCQGQWVPYPFQNNISMLPKEEQVKCIDGMIDAALEARVANTKPKTFDEWIVRMMGTGIADLFMRPYNFKVWAVPTTKMQCAWLGERVAAPNLKAVTTNVILGKTAGNWGPNATFRFPARGGTGGIWIAVANTLPKEKTRFGEKGKVTKVNANNKTVTLQDGTTIGYKKLVSTMAVDFLAEAMNDQELVGLTKQLFYSSTHVIGVGVRGSRPERIGDKCWLYFPEDNCPFYKATIFSNYSPYNQPEASKKLPTMQLADGSRPQSTEAKEGPYWSIMLEVSESSMKPVNQETILADCIQGLVNTEMLKPTDEIVSTYHRRFDHGYPTPTLEREGALTQILPKLQDKDIWSRGRFGSWRYEVGNQDHSFMLGVEAVDNIVNGAVELTLNYPDFVNGRQNTERRLVDGAQVFAKSKAQ",stoichiometry N,4
